Reference: patent US20240409635A1 (VIBRANT PHARMA, published 2024)
Changes are numbered by the printed parent chain.

How the values were obtained:
[1] = target: epidermal growth factor receptor (EGFR) on human tumor cells (human, UniProt P00533 25-1210); assay: cell-based or functional assay
[2] = target: T1, recombinant human tumor antigen CEA (CEACAM-5/CD66e, ACRO systems, CE5-H5226) (human, UniProt P06731 35-685); assay: BLI, antibody on AHC sensor, antigen as analyte
T1 construct: Bought
T1 sequence (looked up): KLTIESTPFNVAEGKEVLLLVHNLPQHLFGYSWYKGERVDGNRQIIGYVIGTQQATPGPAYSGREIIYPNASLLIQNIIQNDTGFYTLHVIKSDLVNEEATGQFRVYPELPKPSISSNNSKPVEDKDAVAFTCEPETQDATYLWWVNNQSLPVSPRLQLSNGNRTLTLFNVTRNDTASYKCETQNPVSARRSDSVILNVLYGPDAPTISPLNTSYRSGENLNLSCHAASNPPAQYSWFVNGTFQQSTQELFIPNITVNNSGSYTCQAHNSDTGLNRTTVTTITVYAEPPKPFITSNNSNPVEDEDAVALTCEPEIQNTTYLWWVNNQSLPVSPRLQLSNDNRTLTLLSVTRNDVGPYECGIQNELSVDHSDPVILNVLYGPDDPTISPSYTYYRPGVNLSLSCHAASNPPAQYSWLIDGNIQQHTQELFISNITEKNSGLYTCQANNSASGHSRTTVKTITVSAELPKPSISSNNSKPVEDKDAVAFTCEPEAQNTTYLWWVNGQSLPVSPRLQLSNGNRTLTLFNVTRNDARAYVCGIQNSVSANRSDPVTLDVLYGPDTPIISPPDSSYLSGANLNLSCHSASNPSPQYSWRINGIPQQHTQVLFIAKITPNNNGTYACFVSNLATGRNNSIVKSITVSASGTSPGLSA
Description: (§1) Antibodies were first captured onto an anti-human IgG Fc coated AHC biosensor (Anti-hIgG Fc, Sartorius, 18-5060). Antibodies were diluted to 5 μg/mL and 1.5 nm protein was coupled to the AHC sensor surface in 0.02% PBST.
(§2) After the sensor captures the antibodies, it binds and dissociates with different concentrations of analytes to obtain the KD value of the interaction. The experimental parameters are as follows: Baseline1: 60 s, Loading: 240 s, Baseline2: 180 s, Association: 240 s, Dissociation: 600 s, High sensitivity kinetics: 2 Hz. Kinetic constants were derived based on the rate equation for 1:1 Langmuir binding to obtain equilibrium dissociation constants (KD). The Data Analysis HT 12 software (Sartorius, 50-5029) was used to simultaneously fit binding and dissociation curves to calculate Kₒₙ and Koff. The affinity KD was calculated based on the below formula: KD=Koff/Kₒₙ.

[3] = target: T2, recombinant human protein CD3ε/δ (ACRO systems, CDD-H52W1) (human, UniProt P07766 23-126; P04234 22-105); assay: BLI, antibody on AHC sensor, antigen as analyte
T2 construct: Bought heterodimer
T2 sequence (P07766 23-126, stated change not applied, chain 1 of 2): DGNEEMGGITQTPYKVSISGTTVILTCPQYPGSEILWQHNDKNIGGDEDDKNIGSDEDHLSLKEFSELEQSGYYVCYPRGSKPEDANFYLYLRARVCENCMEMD
T2 sequence (P04234 22-105, stated change not applied, chain 2 of 2): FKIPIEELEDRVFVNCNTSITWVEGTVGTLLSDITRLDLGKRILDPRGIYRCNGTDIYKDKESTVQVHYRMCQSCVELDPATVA
Description: as §1, §2

[4] = target: T3, recombinant human tumor antigen HER2 (ERBB2, ACRO systems, HE2-H5212) (human, UniProt P04626 23-652); assay: BLI, antibody on AHC sensor, antigen as analyte
T3 construct: Bought
Description: as §1, §2

[5] = target: T4, recombinant human CD3ε/δ protein (ACRO systems, CDD-H52W1) (human, UniProt P07766 23-126; P04234 22-105); assay: BLI, antibody captured on AHC sensor
T4 construct: Bought reagent
T4 sequence (P07766 23-126, stated change not applied, chain 1 of 2): as the sequence (P07766 23-126, stated change not applied, chain 1 of 2) above
T4 sequence (P04234 22-105, stated change not applied, chain 2 of 2): as the sequence (P04234 22-105, stated change not applied, chain 2 of 2) above
Description: as §1
as §2, with “it is used to bind” for “it binds”, “and dissociate” for “and dissociates”, “calculate Kₒₙ,” for “calculate Kₒₙ”

[6] = target: T5, recombinant human EGFR protein (ACRO systems, EGR-H5222) (human, UniProt P00533 25-645); assay: BLI, antibody on AHC sensor, antigen as analyte
T5 construct: Bought
Description: as §1, §2

[7] = target: T6, recombinant human tumor antigen CEACAM-6 (ACRO systems, CE6-H5223) (human, UniProt P40199 35-320); assay: BLI, antibody on AHC sensor, antigen as analyte
T6 construct: Bought
T6 sequence (looked up): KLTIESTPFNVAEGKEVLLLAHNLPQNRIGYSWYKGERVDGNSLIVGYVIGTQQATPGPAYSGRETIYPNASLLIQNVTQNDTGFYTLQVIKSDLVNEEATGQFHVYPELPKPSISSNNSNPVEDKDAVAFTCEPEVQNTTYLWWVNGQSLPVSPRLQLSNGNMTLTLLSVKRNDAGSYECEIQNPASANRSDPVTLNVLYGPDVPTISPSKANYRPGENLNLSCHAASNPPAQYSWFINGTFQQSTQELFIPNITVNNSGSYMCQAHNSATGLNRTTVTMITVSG
Description: as §1, §2

B1: EGFR-BsAb bispecific control antibody (anti-CD3 TA1 Fab and EGFR VHH) (bispecific antibody, human IgG4 S228P, kappa, F234A L235A)
heavy: EVKLLESGGGLVQPKGSLKLSCAASGFTFNTYAMNWVRQAPGKGLEWVARIRSKYNNYATYYADSVKDRFTISRDDSQSILYLQMNNLKTEDTAMYYCVRHGNFGNSYVSWFAYWGQGTLVTVSSASTKGPSVFPLAPCSRSTSESTAALGCLVKDYFPEPVTVSWNSGALTSGVHTFPAVLQSSGLYSLSSVVTVPSSSLGTKTYTCNVDHKPSNTKVDKRVESKYGPPCPPCPAPEAAGGPSVFLFPPKPKDTLMISRTPEVTCVVVDVSQEDPEVQFNWYVDGVEVHNAKTKPREEQFNSTYRVVSVLTVLHQDWLNGKEYKCKVSNKGLPSSIEKTISKAKGQPREPQVYTLPPCQEEMTKNQVSLWCLVKGFYPSDIAVEWESNGQPENNYKTTPPVLDSDGSFFLYSRLTVDKSRWQEGNVFSCSVMHEALHNHYTQKSLSLSL
chain: QVQLQESGGGSVQAGGSLKLSCAASGRGFSRYAMGWFRQAPGQDREFVATISWTNSTDYADSVKGRFAISRDNAKNTAYLQMNSLKPEDTAVYYCAADKWASSTRSIDYDYWGQGIQVTVSSESKYGPPCPPCPAPEAAGGPSVFLFPPKPKDTLMISRTPEVTCVVVDVSQEDPEVQFNWYVDGVEVHNAKTKPREEQFNSTYRVVSVLTVLHQDWLNGKEYKCKVSNKGLPSSIEKTISKAKGQPREPQVCTLPPSQEEMTKNQVSLSCAVKGFYPSDIAVEWESNGQPENNYKTTPPVLDSDGSFFLVSRLTVDKSRWQEGNVFSCSVMHEALHNRFTQKSLSLSL
light: QAVVTQESALTTSPGETVTLTCRSSTGAVTTSNYANWVQEKPDHLFTGLIGGTNKRAPGVPARFSGSLIGDKAALTITGAQTEDEAIYFCALWYSNLWVFGGGTKVEIKRTVAAPSVFIFPPSDEQLKSGTASVVCLLNNFYPREAKVQWKVDNALQSGNSQESVTEQDSKDSTYSLSSTLTLSKADYEKHKVYACEVTHQGLSSPVTKSFNRGEC
In the case of B1, the “T cell mediated killing EC50, H-1975 (EGFR+c-Met+)” value [1] is reported as 0.00032 nM, the “T cell mediated killing EC50, HT-29 (EGFR+c-Met+)” value [1] is reported as 0.000387 nM and the “T cell mediated killing EC50, OSRC2 (EGFR+++c-Met+)” value [1] is reported as 0.00245 nM. The “T cell mediated killing EC50, UT33A (EGFR+++c-Met+++)” value [1] was 0.000398 nM and the “T cell mediated killing EC50, UT44 (EGFR+++c-Met++)” value [1] was 0.000154 nM.

B2: HER2-BsAb (CD3 TA1-Fab x HER2 VHH bispecific control antibody) (bispecific antibody, human IgG4 S228P, kappa, F234A L235A)
heavy: B1 heavy
chain: QVQLVQSGGGLVQAGGSLRLSCAASGRTFSSYAMAWFRQAPGKEREFVAAISWSGANIYVADSVKGRFTISRDNAKDTVYLQMNSLKPEDTAVYYCAVKLGFAPVEERQYDYWGQGTQVTVSSESKYGPPCPPCPAPEAAGGPSVFLFPPKPKDTLMISRTPEVTCVVVDVSQEDPEVQFNWYVDGVEVHNAKTKPREEQFNSTYRVVSVLTVLHQDWLNGKEYKCKVSNKGLPSSIEKTISKAKGQPREPQVCTLPPSQEEMTKNQVSLSCAVKGFYPSDIAVEWESNGQPENNYKTTPPVLDSDGSFFLVSRLTVDKSRWQEGNVFSCSVMHEALHNRFTQKSLSLSL
light: B1 light
For B2, the koff [2] was 0.000391 s⁻¹, the kon [2] was 877000 M⁻¹ s⁻¹ and the Kd [3] was 1.51 nM. The koff [3] was 0.000386 s⁻¹, the kon [3] was 256000 M⁻¹ s⁻¹ and the Kd [4] was 98.4 nM. For the same binder, the koff [4] was 0.0126 s⁻¹ and the kon [4] was 128000 M⁻¹ s⁻¹.

B3: unilateral CD3/CEA/HER2 trispecific antibody 611 (other)
chain 1: QVQLVQSGGGLVQAGGSLRLSCAASGRTFSSYAMAWFRQAPGKEREFVAAISWSGANIYVADSVKGRFTISRDNAKDTVYLQMNSLKPEDTAVYYCAVKLGFAPVEERQYDYWGQGTQVTVSSGGGGSGGGGSEVKLLESGGGLVQPKGSLKLSCAASGFTFNTYAMNWVRQAPGKGLEWVARIRSKYNNYATYYADSVKDRFTISRDDSQSILYLQMNNLKTEDTAMYYCVRHGNFGNSYVSWFAYWGQGTLVTVSSASTKGPSVFPLAPCSRSTSESTAALGCLVKDYFPEPVTVSWNSGALTSGVHTFPAVLQSSGLYSLSSVVTVPSSSLGTKTYTCNVDHKPSNTKVDKRVESKYGPPCPPCPAPEAAGGPSVFLFPPKPKDTLMISRTPEVTCVVVDVSQEDPEVQFNWYVDGVEVHNAKTKPREEQFNSTYRVVSVLTVLHQDWLNGKEYKCKVSNKGLPSSIEKTISKAKGQPREPQVYTLPPCQEEMTKNQVSLWCLVKGFYPSDIAVEWESNGQPENNYKTTPPVLDSDGSFFLYSRLTVDKSRWQEGNVFSCSVMHEALHNHYTQKSLSLSL
chain 2: EVQLVESGGGFVQAGESLTLSCTSSTLTFTPYRMAWYRQAPGKQRDLVADISSGDGRTTNYADFAKGRFTISRDNIKNTVFLRMTNLKPEDTAVYYCNTFVSFVGIARSWGQGTQVTVSSESKYGPPCPPCPAPEAAGGPSVFLFPPKPKDTLMISRTPEVTCVVVDVSQEDPEVQFNWYVDGVEVHNAKTKPREEQFNSTYRVVSVLTVLHQDWLNGKEYKCKVSNKGLPSSIEKTISKAKGQPREPQVCTLPPSQEEMTKNQVSLSCAVKGFYPSDIAVEWESNGQPENNYKTTPPVLDSDGSFFLVSRLTVDKSRWQEGNVFSCSVMHEALHNRFTQKSLSLSL
chain 3: B1 light
Binder B3 has a Kd [2] of 0.195 nM, a koff [2] of 0.000108 s⁻¹ and a kon [2] of 553000 M⁻¹ s⁻¹. It also gave a Kd [3] of 1.77 nM, a koff [3] of 0.000727 s⁻¹ and a kon [3] of 410000 M⁻¹ s⁻¹. For the same binder, the Kd [4] was 105 nM, the koff [4] was 0.0116 s⁻¹ and the kon [4] was 111000 M⁻¹ s⁻¹.

B4: CEA-BsAb bispecific control antibody (TA1-Fab CD3 x CEA VHH) (bispecific antibody, human IgG4 S228P, kappa, F234A L235A)
heavy: B1 heavy
chain: B3 chain 2
light: B1 light
Binder B4 has a Kd [5] of 0.491 nM, a koff [5] of 0.000236 s⁻¹ and a kon [5] of 481000 M⁻¹ s⁻¹.

B5: EGFR-BsAb (CD3 TA1-Fab x EGFR VHH bispecific control antibody) (bispecific antibody, human IgG4 S228P, kappa, F234A L235A)
heavy: B1 heavy
chain: B1 chain
light: B1 light
notes: also called anti-EGFR-BsAb
With B5 the Kd [6] was 4.43 nM, the koff [6] was 0.00519 s⁻¹ and the kon [6] was 1.17e+06 M⁻¹ s⁻¹. It also gave a Kd [3] of 6.43 nM, a koff [3] of 0.00338 s⁻¹ and a kon [3] of 526000 M⁻¹ s⁻¹. For the same binder, the koff [7] was 0.000247 s⁻¹ and the kon [7] was 222000 M⁻¹ s⁻¹.

B6: unilateral CD3/CEA/HER2 trispecific antibody 612 (other)
chain 1: B3 chain 2 with C251Y, S256C, S268W, A270L, V309Y, R337H, F338Y
chain 2: B3 chain 1 with Y487C, C492S, W504S, L506A, Y545V, H573R, Y574F
chain 3: B1 light
With B6 the Kd [2] was 0.193 nM, the koff [2] was 0.000105 s⁻¹ and the kon [2] was 542000 M⁻¹ s⁻¹. For the same binder, the Kd [3] was 1.77 nM, the koff [3] was 0.000682 s⁻¹ and the kon [3] was 386000 M⁻¹ s⁻¹. It also gave a Kd [4] of 108 nM, a koff [4] of 0.0122 s⁻¹ and a kon [4] of 113000 M⁻¹ s⁻¹.
